Laboratory results as given in US20250186597A1, “TARGETED IMMUNE ACTIVATION WITH IL-18 IMMUNOCYTOKINES” (BRIGHT PEAK THERAPEUTICS AG, priority 2023, published 2025).

Tests used:
Assay in all cases: cell-based or functional assay
[1] = biological target: IL-18 polypeptide C168 (V11I, C38A, C76A, S105K, C127A) (human) (UniProt Q14116)
[2] = biological target: IL-18 polypeptide C165 (V11I, C38A, S55R, C76A, C127A) (human) (UniProt Q14116)
[3] = biological target: IL-18 polypeptide C152 (V11I, S36A, C38A, K53A, C76A, C127A) (human) (UniProt Q14116)
[4] = biological target: IL-18 polypeptide C167 (V11I, C38A, C76A, S105I, C127A) (human) (UniProt Q14116)
[5] = biological target: IL-18 polypeptide C154 (V11I, E31A, D37A, C38A, K53A, C76A, C127A) (human) (UniProt Q14116)
[6] = biological target: IL-18 polypeptide of SEQ ID NO: 6 (E6K, V11I, C38A, K53A, T63A, C68A, C76A, D98C, C127A) (human) (UniProt Q14116)
[7] = biological target: IL-18 polypeptide of SEQ ID NO: 51 (T63A) (human) (UniProt Q14116)
[8] = biological target: IL-18 polypeptide C164 (V11I, C38A, S55H, C76A, C127A) (human) (UniProt Q14116)
[9] = biological target: IL-18 polypeptide C158 (V11I, C38A, K53A, C76A, G108A, C127A) (human) (UniProt Q14116)
[10] = biological target: IL-18 polypeptide C147 (V11I, C38A, K53A, D54A, C76A, C127A) (human) (UniProt Q14116)
[11] = biological target: IL-18 polypeptide of SEQ ID NO: 62 (E6K, C38A, K53A, C127A) (human) (UniProt Q14116)
[12] = biological target: IL-18 polypeptide C155 (V11I, C38A, D40A, K53A, C76A, C127A) (human) (UniProt Q14116)
[13] = biological target: IL-18 polypeptide of SEQ ID NO: 48 (C38S, C68S, C76S, C127S, K70C) (human) (UniProt Q14116)
[14] = biological target: IL-18 polypeptide C148 (F2A, V11I, C38A, K53A, C76A, C127A) (human) (UniProt Q14116)
[15] = biological target: IL-18 polypeptide of SEQ ID NO: 46 (E06K, K53A, S55A, M51G) (human) (UniProt Q14116)
[16] = biological target: IL-18 polypeptide C160 (V11I, C38A, K53A, C76A, D110A, C127A) (human) (UniProt Q14116)
[17] = biological target: IL-18 polypeptide C150 (V11I, T34A, C38A, K53A, C76A, C127A) (human) (UniProt Q14116)
[18] = biological target: IL-18 polypeptide of SEQ ID NO: 59 (E6K, C38A, K53A) (human) (UniProt Q14116)
[19] = biological target: native IL-18 wild-type (SEQ ID NO: 1) (human) (UniProt Q14116)
[20] = biological target: IL-18 polypeptide of SEQ ID NO: 37 (S55A) (human) (UniProt Q14116)
[21] = biological target: IL-18 polypeptide C162 (K8E, V11I, C38A, C76A, Q103R, C127A) (human) (UniProt Q14116)
[22] = biological target: IL-18 polypeptide C144 (V11I, C38A, K53A, T63A, C76A, C127A) (human) (UniProt Q14116)

**Q.** Which IC50 of inhibition by IL-18BP of IFNγ stimulation in NK92 cells [1] does the source give for “Fc fused human IL-18 binding protein isoform a (IL-18BPa; R&D systems, Cat #119-BP) (from UniProt O95998 31-194) (Fc fusion)” here?
**A.** The IC50 of inhibition by IL-18BP of IFNγ stimulation in NK92 cells was 0.176 nM.

**Q.** And the IC50 of inhibition by IL-18BP of IFNγ stimulation in NK92 cells [2]?
**A.** Its IC50 of inhibition by IL-18BP of IFNγ stimulation in NK92 cells is 0.885 nM.

**Q.** And the IC50 of inhibition by IL-18BP of IFNγ stimulation in NK92 cells [3]?
**A.** The IC50 of inhibition by IL-18BP of IFNγ stimulation in NK92 cells was 7.85 nM.

**Q.** What about the IC50 of inhibition by IL-18BP of IFNγ stimulation in NK92 cells [4] of the same substance?
**A.** The IC50 of inhibition by IL-18BP of IFNγ stimulation in NK92 cells was 0.809 nM.

**Q.** And the IC50 of inhibition by IL-18BP of IFNγ stimulation in NK92 cells [5]?
**A.** The IC50 of inhibition by IL-18BP of IFNγ stimulation in NK92 cells was 3.71 nM.

**Q.** What about the IC50 of inhibition by IL-18BP of IFNγ stimulation in NK92 cells [6] of the same substance?
**A.** Its IC50 of inhibition by IL-18BP of IFNγ stimulation in NK92 cells is 5.85 nM.

**Q.** What about the IC50 of inhibition by IL-18BP of IFNγ stimulation in NK92 cells [7] of the same substance?
**A.** The IC50 of inhibition by IL-18BP of IFNγ stimulation in NK92 cells was 0.239 nM.

**Q.** And the IC50 of inhibition by IL-18BP of IFNγ stimulation in NK92 cells [8]?
**A.** Its IC50 of inhibition by IL-18BP of IFNγ stimulation in NK92 cells is 0.456 nM.

**Q.** And the IC50 of inhibition by IL-18BP of IFNγ stimulation in NK92 cells [9]?
**A.** Its IC50 of inhibition by IL-18BP of IFNγ stimulation in NK92 cells is 3.98 nM.

**Q.** What about the IC50 of inhibition by IL-18BP of IFNγ stimulation in NK92 cells [10] of the same substance?
**A.** The IC50 of inhibition by IL-18BP of IFNγ stimulation in NK92 cells was 47.6 nM.

**Q.** And the IC50 of inhibition by IL-18BP of IFNγ stimulation in NK92 cells [11]?
**A.** Its IC50 of inhibition by IL-18BP of IFNγ stimulation in NK92 cells is 284 nM.

**Q.** And the IC50 of inhibition by IL-18BP of IFNγ stimulation in NK92 cells [12]?
**A.** The IC50 of inhibition by IL-18BP of IFNγ stimulation in NK92 cells was 3.23 nM.

**Q.** What about the IC50 of inhibition by IL-18BP of IFNγ stimulation in NK92 cells [13] of the same substance?
**A.** The IC50 of inhibition by IL-18BP of IFNγ stimulation in NK92 cells was 0.114 nM.

**Q.** And the IC50 of inhibition by IL-18BP of IFNγ stimulation in NK92 cells [14]?
**A.** The IC50 of inhibition by IL-18BP of IFNγ stimulation in NK92 cells was 5.05 nM.

**Q.** And the IC50 of inhibition by IL-18BP of IFNγ stimulation in NK92 cells [15]?
**A.** Its IC50 of inhibition by IL-18BP of IFNγ stimulation in NK92 cells is 0.189 nM.

**Q.** What about the IC50 of inhibition by IL-18BP of IFNγ stimulation in NK92 cells [16] of the same substance?
**A.** Its IC50 of inhibition by IL-18BP of IFNγ stimulation in NK92 cells is 3.18 nM.

**Q.** What about the IC50 of inhibition by IL-18BP of IFNγ stimulation in NK92 cells [17] of the same substance?
**A.** Its IC50 of inhibition by IL-18BP of IFNγ stimulation in NK92 cells is 21.3 nM.

**Q.** And the IC50 of inhibition by IL-18BP of IFNγ stimulation in NK92 cells [18]?
**A.** Its IC50 of inhibition by IL-18BP of IFNγ stimulation in NK92 cells is 654 nM.

**Q.** And the IC50 of IL-18BP-mediated inhibition of IFNγ secretion by NK92 cells [19]?
**A.** Its IC50 of IL-18BP-mediated inhibition of IFNγ secretion by NK92 cells is 0.781 nM.

**Q.** What about the IC50 of inhibition by IL-18BP of IFNγ stimulation in NK92 cells [19] of the same substance?
**A.** Its IC50 of inhibition by IL-18BP of IFNγ stimulation in NK92 cells is 1.47 nM.

**Q.** And the IC50 of inhibition by IL-18BP of IFNγ stimulation in NK92 cells [20]?
**A.** The IC50 of inhibition by IL-18BP of IFNγ stimulation in NK92 cells was 4.46 nM.

**Q.** What about the IC50 of inhibition by IL-18BP of IFNγ stimulation in NK92 cells [21] of the same substance?
**A.** The IC50 of inhibition by IL-18BP of IFNγ stimulation in NK92 cells was 7.29 nM.

**Q.** What about the IC50 of inhibition by IL-18BP of IFNγ stimulation in NK92 cells [22] of the same substance?
**A.** The IC50 of inhibition by IL-18BP of IFNγ stimulation in NK92 cells was 7.52 nM.
